From the DeepSol protein solubility set come the findings set out here.

This series is described as follows: soluble on expression in E. coli; label from the status in PepcDB or PDB records.
As to “MSTATSKFLSYVLRHAPESIGLVLDSQGWADVADLLAKANASGTPLDEAGLRAVVAESDKKRFTLSEDGRRIRAAQGHSVKVDLGQPPVEPPPQLFHGTATRFLEPILREGLRPGERQQVHLSADRTTALAVGQRHGKPVVLIVDAGQMFADGCRFYLADNGVWLTDAVPFSYLTVSADSSAENDRLEHHHHHH”, the “soluble on expression in E. coli” value is given as “soluble”.
Next, “MSLALNPAVAPIKSIEFIPVNYQASNWSQNTVVVKVTDENGVYGLGEADGSPDAILAYANIETEHKWLTNITEKAIGRLPIEINAIWDAMYDATQWQGMRGLGMFALSGIDMALYDLAGKQLGVPAYQLLGGTNKDKVHPYLTLYPAIPVDASLDVAIKGYAPLLEKAKAHNIRAVKVCVPIKADWSTKEVAYYLRELRGILGHDTDMMVDYLYRFTDWYEVARLLNSIEDLELYFAEATLQHDDLSGHAKLVENTRSRICGAEMSTTRFEAEEWITKGKVHLLQSDYNRCGGLTELRRITEMATANNVQVMPHNWKTGITSAAAIHYQFAVGNAPYFEYVHPEFCDGELRKYLVTPEAELVDGGFAKPTAPGLGIDLNQEFLASLEGHHHHHH”: “soluble”.
With “MARLCTHTESGHYLMALDAGTGSVRAVIFDLQGKQIAVGQAEWQHLAVPDVPGSMEFDLAKNWQLACQCIRQALQKAAIPATAIAAVSACSMREGIVIYDSNGEPIWACANVDARAAHEVSELKELYDNTFEEEVYRCSGQTLALSAIPRLLWLAHHRPDIYHRASTVTMISDWMAFMLSGELAVDPSNAGTTGLLDLVTRNWKRSLLQMAGLRSDILSPVKETGTLLGHISQKAAEQCDLQAGTPVIVGGGDVQLGCLGLGVVRPAQTAVLGGTFWQQVVNLPAPVTDPNMNVRINPHVIPGMVQTESISFFTGLTMRWFRDAFCAEEKLIAERLGIDAYSLLEDMASRVPPGAYGVMPIFSDVMRFKRWYHAAPSFINLSIDPEKCNKATLFRALEENAAIVSACNLQQIAAFSGVQADSLVFAGGGSKGKLWSQILADVTGLTVHVPVVKEATALGCAIAAGVGVGVWPSLAETGEKLVRWDREHKPNPENFAVYQQAREKWQAVYQDQRALVDGGLTTSLWKAPGL” the entry was “not soluble”; with “MGSDKIHHHHHHMFYIMPAWENEVSELNRDLLKNLTNVFVGGKKSVKLAVLNFLPNLRYLLHVNGLTNYEYWNIWDAILGIERVDGMPLGPEALDLPQGVRLINAMTSMDAYEGSKLYARIIRSSEGYLSEVQFMNPQNRHTDVYDDRGFKVCTNYYENEEVVRQEWFNECNQLIVRYEPKAKVAVQILGNYSNFEKRQYKTLNELLMEFVNSFFEEHFDPTQDRLIASTNLKIRPLMVEIQNRLPVTYLLDHLGPMDTTTVETLQPQIQGAFKFVVPNYVIFQQIKSSVAEPAQKVLKLGYPYGTENRLGNSNEESKMFIYWHIDESTNDTTCSQFAEKLIDYSLEHENVGLQVAALNDRQANLVFNYLCQALKNKYTFLDLEQDQDLIWKIVFGREDTDAIGKLLMQLKFRLGMNLKHDPETNPQKLADSARFKKINWKKVMEDITETIIRVNSRDNEIYRNLARSRVLVDVGSPYNTRMQFNAISAGIPQIVNVDSPFIINRKNGWIINEKQSLSQGLDFYLQELGNWNKSLVATTKYMEQLTLKRQADWWERRTKYEK”, “not soluble”.
For “MGSDKIHHHHHHAATHAKTTKTVKTTGGAKTKAAKAKAIKSTSTHIKLQGASNARDLGGYVNRHGQKIKAHRLIRANSLSHLTKADQTKLVKTYHVATDVDLRTTTEQKMSPDVHMAGVKLVKANVFKSFGAFPDFSKKGAGAKMMEKTYHDAVTTAQGRKAYKSLFHQLLINPKGKAVLWHCSAGKDRAGMGTALVLSALKFDKKAIAQDYLKSNTYLAQTNKENLQKMEAGWKAQGKEVTPIVVENFRAQNAVKMAYLNTMYKAIDAKYGNMDNFLHKGLGLSNTQLKQLQANYLTSAK”, the “soluble on expression in E. coli” value is listed as “not soluble”.
Next, “MKRKFLIGSHGRLASGLQSSIDILAGMGQALETIDAYVDDSDYTSQIDDFIAGVAADEQGLIFTDLLGGSVNQKMVTAVMNSGKDNIFLITNSNLATLLSLVFLKPGEALTKDEIVTVINESQVQLVDLVPETNSEDDFFD”: “not soluble”; “MSLSYRAHGLPVLENLLEQDFSASGPNQKWAGDITYLRTDEGWLYLAVVIDLWSRAVIGWSMSPRMTAQLACDALQMALWRRRRPESVIVHTDRGGQYCSGDYQALLKRHNLRGSMSAKGYCYDNACVESFFHSLKVECIHGERFSSREIMRATVFNYIECDYNRWRRHSACGGLSPEQFENHNLAEGHHHHHH”: “not soluble”; “GMKGISHRIAIPLILEVGNNKIYNIGQIIKKGNFKRVSLYFGEGIYELFGETIEKSIKSSNIEIEAVETVKNIDFDEIGTNAFKIPAEVDALIGIGGGKAIDAVKYMAFLRKLPFISVPTSTSNDGFSSPVASLLINGKRTSVPAKTPDGIVVDIDVIKGSPEKFIYSGIGDLVSNITALYDWKFEEENHKSIIDDFAVMISKKSVNSFVRTDFKSIKDEVFLKELVDSLTMNGIAMEIAGNSSPASGAEHLISHALDKFLPNPQLHGIQVGVATYIMSKVHKHREERIKKILSDTGFFNYVKGLNMKKSDFKRAISEAHLIKPARYTYLHVEKNCETAKEIVDTDEILRNILV”: “soluble”.
Next, “MGSDKIHHHHHHMVKFIHCSDLHLDSPFKSKSHISPKIFEDVQKSAYESFKNIVDIALQQDVDFVIIAGDLFDSENRTLRAEIFLKQQFERLQNEQIFVYVCHGNHDPLSSKISSNWPDNVSVFSNKVETYEAITKSGETIYIHGFSYENRASYENKIDEYPSSQGQKGIHIGVLHGTYSKSSVNERYTEFILEDLNSKLYHYWALGHIHERQQLSDMPVINYSGNIQGRHFNEQGEKGCLLIEGDHLKLKTKFYPTQYIRFEEATIETDKTSKQGLYEVIQNFKEQVREEGKAFYRLTLVINSETLISPQDLLQVEEMITDYEENENQFVYIDELKIQYAQNDESPLVNEFSAELLVDQTVFDKAMSDLYLNPRASKFLDDYGTFDHTALVNRAEEILKAEMRGEQNDN”: “not soluble”; “MVPLESSTLFGVYGGFTDSMMMRETTTNNQDPSGDTCSVSDPAPGSTDYYNISSSPVKDDGTAPKNDVVCSINVDDNKDKSWLRLGIGPEENTDGSYKLQRCCSKNGSGRENSLELSLFSSSSTAVSSSIDHLPTQPLQLPYHHDQLLTMRGPSLVYNHQLMKPQTLLNRGFSFPSSKPWIPQYMAPFRPSSLSDRDVTNNNSLSRSCCVDEGGAGPSSEFRVLDPPRRPHSGLWFLLQASQFQ”: “soluble”; “MPQIQSSHSNHFDFTIDTADRTKLLMSYLVVPTTANFNNVMHGGELLNLLDKVAYVCSTRYCAKGTVTLSVDGVTFKYPIPVGNLLTFLASINYVGNTSCEVGIKVLSEDIKTREITHTNSCYFTMVAVENGKPTPMPKYEPKTEVEIRRYEGALKRKEMRTRGYLKSGKHEGVLEHHHHHH”: “not soluble”.
Next, “MRIGHGFDVHAFGGEGPIIIGGVRIPYEKGLLAHSDGDVALHALTDALLGAAALGDIGKLFPDTDPAFKGADSRELLREAWRRIQAKGYTLGNVDVTIIAQAPKMLPHIPQMRVFIAEDLGCHMDEVNVKATTTEKLGFTGRGEGIACEAVALLMKAAK”: “not soluble”; “IHHLPPVKAPLQTKKKIMKHCFLCGKKTGLATSFECRCGNNFCASHRYAEAHGCNYDYKSAGRRYLEEANPV”: “soluble”.
With “MGSDKIHHHHHHMEKKIVYFNKPGRENTEETLRLAVERAKELGIKHLVVASSYGDTAMKALEMAEGLEVVVVTYHTGFVREGENTMPPEVEEELRKRGAKIVRQSHILSGLERSISRKLGGVSRTEAIAEALRSLFGHGLKVCVEITIMAADSGAIPIEEVVAVGGRSRGADTAVVIRPAHMNNFFDAEIKEIICMPRNKR”, the “soluble on expression in E. coli” value is reported as “soluble”.
For “MAHHHHHHMPQKPLFFIYFFFFQDTPDFGGVDTQTNNNNKKRGFTRDGRGKLAGGDAHSRRDRRMRLRGWGHTAFQTRLNGSRCWGSRGASSASQCVALRSASSSFSMSTSRSPFDAVYVINLNRRPDRWKFILRQLQRAGFREGEYERFTAVDGRAVDIQKAQACGLVSLLGILRLREEESRRIWGMDLNPAAVGCALSHVLLWATIAARRYHRVLVVEDDSLFPHDFQKKYDERMRHVPQDWELVYVSGLDTADQTSQLRVAEGVSRVPQMHRTTNCYVVTHHGARRLLELCLPMTYQLDTMMTMHAVSDPQSGVPHVTSPVCYTLQPPLVVQATRMGSDIQSSNGRDEQEEERARCRAAGWTTD”, the “soluble on expression in E. coli” value is reported as “soluble”.
As for “MSSEAVDATTLVIIPTYNELENLPLIVDRVRTATPDVHVLIVDDNSPDGTGERADKLAADDDHIFVLHREGKGGLCAAYMAGFQWGLERDYQVLCEMDADGSHAPEQLHLLLAEITNGADLVIGSRYVPGGRVVNWPKNRWLLSKGGNVYISVALGAGLTDMTAGYRAFRREVLEALPLDELSNAGYIFQVEIAYRAVEAGFDVREVPITFTEREIGESKLDGSFVKDSLLEVTKWGLKHRGGQAKELSKEMVGLLNYEWKHFKKRNTWLLEHHHHHH”, the “soluble on expression in E. coli” value is “not soluble”.
With “MSLVRQEPLRPDQPLEMGFEYRSAVRTVRTDSTGLIIPAPTARFSLNESPWRSCKGGMMAGMSSLVRIVNAGVPGSQDRVDVVLRDGVVASVGPAGTVSASDGTMQTKAHTTSLAYATNAIASGGVSIPTSASAPADETTIDADGLWVIPGLWDCHTHFTQWVKTLGRLDLINARSAAEAMDMLRRHLDERRAADTLDPDAFVVGMRFRHSLWADDEQPTLAAIDAVTGEQPVALSSADMHCGWVNSAAARRLGVHVDESGLVGELEWFNAYTAFDKAPGAAEETDRLLREAEQDAASKGVVGIRDYEMAENIDTWINRFAAGINGLRVDAGVYPERLRAAIDAGWHTGKELPGSAGLGHVGAMKLISDGSLNTRSAYCSTPYSGIEPLTYGTLSYTPQQIEDYMRLATEHGFDIACHAIGDEANTIALNAVAATHAHGSIEHAQMLKPVDIPRFAELGLTASIQPQHAMDDRDVITRFWANPAGIPYPFRALHDAGTTLRMGSDAPVAPLDPWLAISAAVLGTESSDREPFQPEQCLDVHTSLAASTATGRDRLASGDPADVVLLDADPYAADTPEAMRAMPQHVVMTLLCGERTYEGHHHHHH” the entry was “not soluble”.
In the case of “MAHHHHHHMPELSYMFSSVSEPRALGAADDGQVITSHSNSSNNNHNNFYPLYSASGSTKVSNYGGHFENNGNNIISMNNKSDVNANTCGDSGEKGNEGEKWIWVLDPLTRKLRVPLSQLVHTQATATTGTVPSLCISFLEGRCRHQWCRQAHVLPSAIPQLRHEALHAPTCCRLHDDPHDTSVLTSRFKYIRVV”, the “soluble on expression in E. coli” value was “not soluble”.
Next, “SKERRAPQPVVARCKLVLVGDVQCGKTAMLQVLAKDCYPETYVPTVFENYTACLETEEQRVELSLWDTSGSPYYDNVRPLCYSDSDAVLLCFDISRPETVDSALKKWRTEILDYCPSTRVLLIGCKTDLRTDLSTLMELSHQKQAPISYEQGCAIAKQLGAEIYLEGSAFTSEKSIHSIFRTASMLCLNKPSPLPQKSPVRSLSKRLLHLPSRSELISSTFKKEKAKSCSIM”: “soluble”.
With “MPYIALEDGFLRSFGTGRHFPPLSLVVDRLGIYYDATRESELECLLASSRTLLDGIEDAVPEAMELVRERRLSKYNHGGFLATGVPADGRRRVLVVDQTEGDMSVTLGCAEAATFEAMLAAARAENPGALICVKTHPEVAAGDKSGYLSRVTDDADTLALRHDMNPLALLEQMDRVYVVSSQMGFEALMLDKPVICFGMPWYAGWGVTDDRQRCERRGRARSVEELFAGAYFHYTRYLDPVLH” the entry was “not soluble”.
